# Experimental data from publication PMC3983244, “Location of Dual Sites in E. coli FtsZ Important for Degradation by ClpXP; One at the C-Terminus and One in the Disordered Linker” (PLoS ONE, 2014).
# Residue numbers refer to the chain shown, from its start. In names and notes the source's numbering stands.
# B1: FtsZ(352AAA, Δ375-383) (domain or fragment, E. coli, UniProt P0A9A6 1-374, looked up)
# chain: MFEPMELTNDAVIKVIGVGGGGGNAVEHMVRERIEGVEFFAVNTDAQALRKTAVGQTIQIGSGITKGLGAGANPEVGRNAADEDRDALRAALEGADMVFIAAGMGGGTGTGAAPVVAEVAKDLGILTVAVVTKPFNFEGKKRMAFAEQGITELSKHVDSLITIPNDKLLKVLGRGISLLDAFGAANDVLKGAVQGIAELITRPGLMNVDFADVRTVMSEMGYAMMGSGVASGEDRAEEAAEMAISSPLLEDIDLSGARGVLVNITAGFDLRLDEFETVGNTIRAFASDNATVVIGTSLDPDMNDELRVTVVATGIGMDKRPEITLVTNKQVQQPVMDRYQQHGMAPLTQEQAAAAKVVNDNAPQTAKEPDYLDI
# notes: also called double mutant; source: E. coli BL21 (λDE3), purified like wild type FtsZ
# B2: FtsZ(Δ375-383) (domain or fragment, E. coli, UniProt P0A9A6 1-374, looked up)
# chain: B1 chain with A352K, A353P, A354V
# notes: Alexa-labelled in the degradation reactions, unlabelled in co-sedimentation; also called deletion mutant lacking the C-terminal nine amino acids; source: E. coli BL21 (λDE3), purified like wild type FtsZ
# B3: MinC (natural protein)
# chain: MSNTPIELKGSSFTLSVVHLHEAEPKVIHQALEDKIAQAPAFLKHAPVVLNVSALEDPVNWSAMHKAVSATGLRVIGVSGCKDAQLKAEIEKMGLPILTEGKEKAPRPAPTPQAPAQNTTPVTKTRLIDTPVRSGQRIYAPQCDLIVTSHVSAGAELIADGNIHVYGMMRGRALAGASGDRETQIFCTNLMAELVSIAGEYWLSDQIPAEFYGKAARLQLVENALTVQPLN
# B4: E. coli FtsZ (wild type) (natural protein, UniProt P0A9A6 1-383, looked up)
# chain: MFEPMELTNDAVIKVIGVGGGGGNAVEHMVRERIEGVEFFAVNTDAQALRKTAVGQTIQIGSGITKGLGAGANPEVGRNAADEDRDALRAALEGADMVFIAAGMGGGTGTGAAPVVAEVAKDLGILTVAVVTKPFNFEGKKRMAFAEQGITELSKHVDSLITIPNDKLLKVLGRGISLLDAFGAANDVLKGAVQGIAELITRPGLMNVDFADVRTVMSEMGYAMMGSGVASGEDRAEEAAEMAISSPLLEDIDLSGARGVLVNITAGFDLRLDEFETVGNTIRAFASDNATVVIGTSLDPDMNDELRVTVVATGIGMDKRPEITLVTNKQVQQPVMDRYQQHGMAPLTQEQKPVAKVVNDNAPQTAKEPDYLDIPAFLRKQAD
# notes: FtsZ, Escherichia coli, wild type; Unlabelled in the co-sedimentation assay; labelled with Alexa fluor succinimidyl ester (0.5-5.0 mol/mol) in the degradation reactions; Assembles into polymers with GTP; also called wild type FtsZ
# B5: FtsZ(352AAA) (natural protein, E. coli, UniProt P0A9A6 1-383, looked up)
# chain: B4 chain with K352A, P353A, V354A
# notes: source: E. coli BL21 (λDE3), purified like wild type FtsZ
# B6: FtsZ(R379E) (natural protein, E. coli, UniProt P0A9A6 1-383, looked up)
# chain: B4 chain with R379E
# notes: FtsZ, Escherichia coli, substitution R379E; source: E. coli BL21 (λDE3), purified like wild type FtsZ
# B7: FtsZ(356AAA) (natural protein, E. coli, UniProt P0A9A6 1-383, looked up)
# chain: B4 chain with K356A, V357A, V358A
# notes: as for B5
# B8: FtsZ(K380A) (natural protein, E. coli, UniProt P0A9A6 1-383, looked up)
# chain: B4 chain with K380A
# notes: FtsZ, Escherichia coli, substitution K380A; source: E. coli BL21 (λDE3), purified like wild type FtsZ
# B9: FtsZ(Δ380-383) (domain or fragment, E. coli, UniProt P0A9A6 1-379, looked up)
# chain: MFEPMELTNDAVIKVIGVGGGGGNAVEHMVRERIEGVEFFAVNTDAQALRKTAVGQTIQIGSGITKGLGAGANPEVGRNAADEDRDALRAALEGADMVFIAAGMGGGTGTGAAPVVAEVAKDLGILTVAVVTKPFNFEGKKRMAFAEQGITELSKHVDSLITIPNDKLLKVLGRGISLLDAFGAANDVLKGAVQGIAELITRPGLMNVDFADVRTVMSEMGYAMMGSGVASGEDRAEEAAEMAISSPLLEDIDLSGARGVLVNITAGFDLRLDEFETVGNTIRAFASDNATVVIGTSLDPDMNDELRVTVVATGIGMDKRPEITLVTNKQVQQPVMDRYQQHGMAPLTQEQKPVAKVVNDNAPQTAKEPDYLDIPAFLR
# notes: also called deletion mutant that lacks the C-terminal four amino acid variable region; source: E. coli BL21 (λDE3), purified like wild type FtsZ
# Assays:
# [1] = target: E. coli FtsZ (wild type) (E. coli) (UniProt P0A9A6)
# FtsZ(K380A) (E. coli) = FtsZ(K380A) (E. coli) (UniProt P0A9A6)
# FtsZ(R379E) (E. coli) = FtsZ(R379E) (E. coli) (UniProt P0A9A6)
# FtsZ(Δ375-383) (E. coli) = FtsZ(Δ375-383) (E. coli) (UniProt P0A9A6)
# FtsZ(Δ380-383) (E. coli) = FtsZ(Δ380-383) (E. coli) (UniProt P0A9A6)
# FtsZ(F377A) (E. coli) = FtsZ(F377A) (E. coli) (UniProt P0A9A6)
# FtsZ(P375G) (E. coli) = FtsZ(P375G) (E. coli) (UniProt P0A9A6)
# [2] = target: the molecule itself; test: 90° light scattering; 8 µM FtsZ wild type or mutant in assembly buffer, polymerisation after addition of 1 mM GTP; self-association into polymers
# ClpX(E185Q) = target: T1, ClpX(E185Q) (E. coli, UniProt P0A6H1 1-424, E185Q); test: co-sedimentation; 250 pmol FtsZ wild type or mutant polymerised with 2 mM GTP in assembly buffer (50 mM MES pH 6.5, 50 mM KCl, 10 mM MgCl2) with acetate kinase and acetyl phosphate; 1.5, 5.0 or 12.5 pmol ClpX(E185Q) and 4 mM ATP added, 25 µl, 10 min; 129,000×g 30 min; SDS-PAGE, Coomassie, densitometry; background without GTP subtracted; settings: both partners purified
# T1 construct: ClpX, Escherichia coli, ATP hydrolysis defective mutant E185Q; Concentrations are reported for ClpX hexamers; also called ATP hydrolysis defective mutant of ClpX
# [3] = target: E. coli FtsZ (wild type) (E. coli) (UniProt P0A9A6); remark: listed apart in the source
# [4] = target: the molecule itself; test: negative-stain electron microscopy; FtsZ mutant proteins (5 µM) incubated with GTP, negative staining with uranyl acetate; filaments
molecule,measurement,setting,value
E. coli ClpX (wild type) (from UniProt P0A6H1 1-424) (enzyme),"rate of degradation of fluorescent FtsZ (10 µM) by ClpXP (1 µM) in the absence of GTP, ultrafiltration assay",[1],0.11 min⁻¹
same,"rate of degradation of fluorescent FtsZ (10 µM) by ClpXP (1 µM) in the presence of GTP, ultrafiltration assay",[1],0.2 min⁻¹
same,"reduction of the rate of degradation by ClpXP against wild type FtsZ, in both the presence and absence of GTP",FtsZ(K380A) (E. coli),55%
same,"reduction of the rate of degradation by ClpXP against wild type FtsZ, in both the presence and absence of GTP",FtsZ(R379E) (E. coli),75%
same,"reduction of the rate of degradation by ClpXP against wild type FtsZ, in the absence of GTP",FtsZ(Δ375-383) (E. coli),65%
same,"reduction of the rate of degradation by ClpXP against wild type FtsZ, in the presence of GTP",FtsZ(Δ375-383) (E. coli),75%
same,"reduction of the rate of degradation by ClpXP against wild type FtsZ, in the absence of GTP",FtsZ(Δ380-383) (E. coli),65%
same,"reduction of the rate of degradation by ClpXP against wild type FtsZ, in the presence of GTP",FtsZ(Δ380-383) (E. coli),75%
same,"reduction of the rate of degradation by ClpXP against wild type FtsZ, in the presence of GTP (no similar reduction without GTP)",FtsZ(F377A) (E. coli),50%
same,"reduction of the rate of degradation by ClpXP against wild type FtsZ, in the presence of GTP (no similar reduction without GTP)",FtsZ(P375G) (E. coli),50%
B1,binding result,[2],binds
same,binding result,ClpX(E185Q),binds
B2,binding result,ClpX(E185Q),binds
B3,"inhibition of degradation of fluorescent FtsZ (5 µM, with GTP) by ClpXP (0.5 µM) at 2, 5, 10 and 20 µM MinC; the pair that is blocked: FtsZ with ClpX (ClpXP)",[3],80%
B4,binding result,[2],binds
same,binding result,ClpX(E185Q),binds
B5,binding result,[4],binds
same,binding result,ClpX(E185Q),binds
B6,binding result,[4],binds
B7,binding result,[2],binds
same,binding result,ClpX(E185Q),binds
B8,binding result,[2],binds
B9,binding result,[2],binds
